One test has as its target LexA-Rab10 Q68L (mouse) (UniProt P61027). The experiment in a line: two-hybrid.
Test [1] concerns the target LexA-Rab10 wild-type (mouse) (UniProt P61027). Nature of the test: two-hybrid.

For the molecule “GAD-Exoc6 CT (from UniProt Q8TAG9-1 384-797) (domain or fragment)”, in the test with LexA-Rab10 Q68L (mouse), the 3-aminotriazole concentration that suppresses growth came to 1 mM.

B1: GAD-Exoc6b CT (domain or fragment)
chain: SDPNLVLDLKNLIVLFADTLQVYGFPVNQLFDMLLEIRDQYSETLLKKWAGIFRNILDSDNYSPIPVTSEEMYKKVVGQFPFQDIELEKQPFPKKFPFSEFVPKVYNQIKEFIYACLKFSEDLHLSSTEVDDMIRKSTNLLLTRTLSNSLQNVIKRKNIGLTELVQIIINTTHLEKSCKYLEEFITNITNVLPETVHTTKLYGTTTFKDARHAAEEEIYTNLNQKIDQFLQLADYDWMTGDLGNKASDYLVDLIAFLRSTFAVFTHLPGKVAQTACMSACKHLATSLMQLLLEAEVRQLTLGALQQFNLDVRECEQFARSGPVPGFQEDTLQLAFIDLRQLLDLFIQWDWSTYLADYGQPNCKYLRVNPVTALTLLEKMKDTSRKNNMFAQFRKNERDKQKLIDTVAKQLRGLI
B1: the 3-aminotriazole concentration that suppresses growth in test [1] was 1 to 5 mM; with LexA-Rab10 Q68L (mouse), 50 mM.

The values above are taken from article PMC4564306.
